Experimental data: the supplement of paper PMC10126150
± gives the standard deviation of the averaged measurements.

Tested on: ATP
Experiment: switch fluorescence ratio, 500 uM ATP over buffer (Cy3 cluster intensity, sum of 5 cycles each) (fold (ratio)); higher = stronger signal-on switching upon ATP binding; sequences stand for … in TCGTCGGCAGCGTCAGATGTGTATAAGAGACAGTTTTTTTTTTTTTTTTTTTTTTTTT…TC
Details: aptamer strand: ATP DNA aptamer (quencher-CACCTGGGGGAGTATTGCGGAGGAAGG + anchor), 100 nM annealed; ATP concentration: 500 uM
Summary of the method: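 After annealing to 100 nM quencher-labelled ATP aptamer, Cy3-labelled switching-strand clusters on a modified Illumina MiSeq flow-cell were imaged in selection buffer. A second image followed after 15 min with 500 uM ATP at 22 °C, and five such buffer/ATP cycles were done, each separated by NaOH stripping and re-annealing. The fluorescence ratio, averaged per switch-domain sequence, is summed target-cycle over summed buffer-cycle Cy3 intensity per cluster, with clusters outside 100-1000 RFU excluded.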
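Further: ATP exposure 15 min at 22 °C before imaging.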

**Q.** TCGTTCGTCG was tested. Which switch fluorescence ratio did it give?
**A.** 1.04 ± 0.06

**Q.** Which switch fluorescence ratio does the source give for TGCATTGGGA here?
**A.** 1.02 ± 0.043

**Q.** With TTGTTAACTT as the sequence, how does the switch fluorescence ratio read?
**A.** 0.985 ± 0.017

**Q.** Which switch fluorescence ratio does the source give for TAGGCCTCGA here?
**A.** 0.985 ± 0.026

**Q.** Which switch fluorescence ratio does the source give for ATGGGCCTGG here?
**A.** 0.9792 ± 0.0094

**Q.** How did the switch fluorescence ratio turn out when TAAATCCGGG was run?
**A.** 1 ± 0.022

**Q.** For AGTAGTGTTG, which switch fluorescence ratio is on record?
**A.** 1.01 ± 0.068

**Q.** ATATATCGTG was tested. Which switch fluorescence ratio did it give?
**A.** 0.995 ± 0.019

**Q.** Which switch fluorescence ratio does the source give for CGGGGTAATC here?
**A.** 1.03 ± 0.047

**Q.** How did the switch fluorescence ratio turn out when TTGATAGCTT was run?
**A.** 0.998 ± 0.018

**Q.** Which switch fluorescence ratio does the source give for GGGGCGGTGT here?
**A.** 1.32 ± 0.54

**Q.** For GCCTACGGCC, which switch fluorescence ratio is on record?
**A.** 1.004 ± 0.0021

**Q.** For AGGAAATTAT, which switch fluorescence ratio is on record?
**A.** 1.01 ± 0.029

**Q.** With ATTAAATTGT as the sequence, how does the switch fluorescence ratio read?
**A.** 0.9919 ± 0.0062

**Q.** For TCGTAAATTT, which switch fluorescence ratio is on record?
**A.** 0.973 ± 0.055

**Q.** For CAAAGCTATT, which switch fluorescence ratio is on record?
**A.** 1.008 ± 0.006

**Q.** With ACGAGAGATT as the sequence, how does the switch fluorescence ratio read?
**A.** 1.42 ± 0.48

**Q.** Which switch fluorescence ratio does the source give for GGGGAAGGTT here?
**A.** 0.991 ± 0.037

**Q.** Which switch fluorescence ratio does the source give for GTTGATCCTT here?
**A.** 0.9987 ± 0.0075

**Q.** CTTAGCTAGA was tested. Which switch fluorescence ratio did it give?
**A.** 1.0428 ± 0.00056

**Q.** For CAAAGTACAA, which switch fluorescence ratio is on record?
**A.** 1.17 ± 0.02

**Q.** GTTTCGCCGT was tested. Which switch fluorescence ratio did it give?
**A.** 1.046 ± 0.0054

**Q.** With CGTCGGTTAG as the sequence, how does the switch fluorescence ratio read?
**A.** 1.01 ± 0.015

**Q.** With GTTACGTTAT as the sequence, how does the switch fluorescence ratio read?
**A.** 1.13 ± 0.078

**Q.** For AATACAATGG, which switch fluorescence ratio is on record?
**A.** 1.04 ± 0.011

**Q.** Which switch fluorescence ratio does the source give for GAACTATTTC here?
**A.** 1.036 ± 0.0019

**Q.** With CAATTCATGG as the sequence, how does the switch fluorescence ratio read?
**A.** 0.992 ± 0.073

**Q.** For GCTGGTATAT, which switch fluorescence ratio is on record?
**A.** 1.01 ± 0.016

**Q.** For ACTGAAAAAG, which switch fluorescence ratio is on record?
**A.** 0.987 ± 0.019

**Q.** How did the switch fluorescence ratio turn out when CCAAGTTCTC was run?
**A.** 0.972 ± 0.021

**Q.** TTGGGGGTGG was tested. Which switch fluorescence ratio did it give?
**A.** 1.01 ± 0.04

**Q.** GAGGACATGC was tested. Which switch fluorescence ratio did it give?
**A.** 0.979 ± 0.11

**Q.** With ATAGGTATGA as the sequence, how does the switch fluorescence ratio read?
**A.** 0.988 ± 0.01

**Q.** How did the switch fluorescence ratio turn out when CAGGGGATGC was run?
**A.** 0.987 ± 0.067

**Q.** For GCGTTAATGG, which switch fluorescence ratio is on record?
**A.** 1 ± 0.02

**Q.** Which switch fluorescence ratio does the source give for CGTAGTTCGA here?
**A.** 1.02 ± 0.018

**Q.** How did the switch fluorescence ratio turn out when CAAACTCCCA was run?
**A.** 1.16 ± 0.18

**Q.** Which switch fluorescence ratio does the source give for TGGGATAAAG here?
**A.** 0.9923 ± 0.0029

**Q.** How did the switch fluorescence ratio turn out when TAAGGGTGGC was run?
**A.** 1.04 ± 0.035

**Q.** For AAATCCGCG, which switch fluorescence ratio is on record?
**A.** 1.28 ± 0.031

**Q.** Which switch fluorescence ratio does the source give for ATGCTGGGGT here?
**A.** 0.986 ± 0.021

**Q.** Which switch fluorescence ratio does the source give for GCACTCAGGA here?
**A.** 1.03 ± 0.04

**Q.** With TGAGGGACAT as the sequence, how does the switch fluorescence ratio read?
**A.** 1.02 ± 0.046

**Q.** How did the switch fluorescence ratio turn out when GGTGGGTGTA was run?
**A.** 0.957 ± 0.051

**Q.** With CGGGCTCTGG as the sequence, how does the switch fluorescence ratio read?
**A.** 1.02 ± 0.0016

**Q.** Which switch fluorescence ratio does the source give for GTTGTCATGC here?
**A.** 1.02 ± 0.033

**Q.** How did the switch fluorescence ratio turn out when AGGGTTACGG was run?
**A.** 1.02 ± 0.025

**Q.** How did the switch fluorescence ratio turn out when CTCTGTTTGG was run?
**A.** 0.957 ± 0.021

**Q.** CAAGGAAGGA was tested. Which switch fluorescence ratio did it give?
**A.** 0.9967 ± 0.005

**Q.** Which switch fluorescence ratio does the source give for TTTGAGGAGC here?
**A.** 1.035 ± 0.0028

**Q.** With CGCAGTTTTA as the sequence, how does the switch fluorescence ratio read?
**A.** 1.055 ± 0.0065

**Q.** Which switch fluorescence ratio does the source give for AGGGCGTACA here?
**A.** 0.992 ± 0.01

**Q.** How did the switch fluorescence ratio turn out when TTTTCCGCGG was run?
**A.** 1.062 ± 0.0077

**Q.** Which switch fluorescence ratio does the source give for GCTGTATTTA here?
**A.** 0.974 ± 0.024

**Q.** For GGAGTTGGGA, which switch fluorescence ratio is on record?
**A.** 1.021 ± 0.0066

**Q.** For ATTTCACGGC, which switch fluorescence ratio is on record?
**A.** 1.05 ± 0.024

**Q.** Which switch fluorescence ratio does the source give for ATACGTTGAA here?
**A.** 1 ± 0.045

**Q.** TAAAGATTTT was tested. Which switch fluorescence ratio did it give?
**A.** 1.01 ± 0.041

**Q.** For CCATTGGGGT, which switch fluorescence ratio is on record?
**A.** 0.995 ± 0.017

**Q.** With TAGAGAGCCA as the sequence, how does the switch fluorescence ratio read?
**A.** 1.03 ± 0.041

**Q.** With CGGGAGAACC as the sequence, how does the switch fluorescence ratio read?
**A.** 0.9981 ± 0.0082

**Q.** For ATGCGCTCGA, which switch fluorescence ratio is on record?
**A.** 1.02 ± 0.053

**Q.** With ATATGTGCCA as the sequence, how does the switch fluorescence ratio read?
**A.** 0.98 ± 0.02

**Q.** How did the switch fluorescence ratio turn out when AGGGGTACAT was run?
**A.** 1.01 ± 0.033

**Q.** How did the switch fluorescence ratio turn out when TAGCAGTCGA was run?
**A.** 1.09 ± 0.058

**Q.** How did the switch fluorescence ratio turn out when CGTTGGGAAG was run?
**A.** 0.9779 ± 0.0087

**Q.** For GAATCATGTT, which switch fluorescence ratio is on record?
**A.** 0.9915 ± 0.0065

**Q.** With TGTTACTCCT as the sequence, how does the switch fluorescence ratio read?
**A.** 1.09 ± 0.026

**Q.** How did the switch fluorescence ratio turn out when CTTTGGGCCC was run?
**A.** 0.98271 ± 0.0009

**Q.** Which switch fluorescence ratio does the source give for TAGTGATTGC here?
**A.** 0.988 ± 0.025

**Q.** How did the switch fluorescence ratio turn out when TTCCGTGGGA was run?
**A.** 1.06 ± 0.045

**Q.** TATCGGCAAT was tested. Which switch fluorescence ratio did it give?
**A.** 4.42 ± 0.76

**Q.** With GTTTTTTGTG as the sequence, how does the switch fluorescence ratio read?
**A.** 0.986 ± 0.013

**Q.** How did the switch fluorescence ratio turn out when GGCTACAGCG was run?
**A.** 0.987 ± 0.0032

**Q.** How did the switch fluorescence ratio turn out when ATAATTGAGC was run?
**A.** 1.04 ± 0.027

**Q.** GTAAAGAAAA was tested. Which switch fluorescence ratio did it give?
**A.** 1.05 ± 0.081

**Q.** For TCTGTATTCG, which switch fluorescence ratio is on record?
**A.** 1.005 ± 0.0033
